Assays:
Details in all cases: both partners purified
GST-BSK3 WT [1] = molecular target: T1, GST-BSK3 WT (Arabidopsis, UniProt Q8W4L3 1-489); assay: pull-down; in vitro (Fig. 4e): Sumo-His-RTFL18 on Ni-NTA beads, then GST or GST-BSK3/BSK6, 4 °C 2 h, 1 × PBS with 1 mM DTT; blot anti-GST, anti-His
T1 construct: BSK3, Arabidopsis; full-length coding region cloned into pGEX4-T-1; source: E. coli BL21 (DB3), purified; not shown: GST, N-terminal, kept

GST-BSK6 = molecular target: T2, GST-BSK6 (Arabidopsis, UniProt Q9M324 1-490); assay: as above
T2 construct: BSK6, Arabidopsis; full-length coding region cloned into pGEX4-T-1; source: E. coli BL21 (DB3); not shown: GST, N-terminal, kept
T2 sequence (Q9M324 whole entry): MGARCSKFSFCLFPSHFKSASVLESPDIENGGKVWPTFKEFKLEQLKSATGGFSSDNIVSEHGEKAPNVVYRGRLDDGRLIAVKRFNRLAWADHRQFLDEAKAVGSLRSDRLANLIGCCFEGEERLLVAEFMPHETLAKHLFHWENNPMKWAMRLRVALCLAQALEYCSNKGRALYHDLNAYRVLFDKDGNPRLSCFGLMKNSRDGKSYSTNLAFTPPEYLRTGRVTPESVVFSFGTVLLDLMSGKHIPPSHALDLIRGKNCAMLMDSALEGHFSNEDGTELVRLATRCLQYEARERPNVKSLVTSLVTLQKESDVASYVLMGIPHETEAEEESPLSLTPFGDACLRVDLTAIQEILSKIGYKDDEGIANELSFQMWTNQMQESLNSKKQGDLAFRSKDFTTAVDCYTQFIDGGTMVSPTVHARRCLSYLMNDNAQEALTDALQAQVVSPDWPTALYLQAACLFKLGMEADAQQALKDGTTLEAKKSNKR

GST-BSK3 WT [2] = molecular target: T1, GST-BSK3 WT; assay: pull-down; in vitro (Fig. 4l): purified GST-BSK3 WT on glutathione beads, then His-RTFL18 (WT, M1, M2), 4 °C 2 h, 1 × PBS with 1 mM DTT; blot anti-His, anti-GST

T1 sequence (Q8W4L3 whole entry): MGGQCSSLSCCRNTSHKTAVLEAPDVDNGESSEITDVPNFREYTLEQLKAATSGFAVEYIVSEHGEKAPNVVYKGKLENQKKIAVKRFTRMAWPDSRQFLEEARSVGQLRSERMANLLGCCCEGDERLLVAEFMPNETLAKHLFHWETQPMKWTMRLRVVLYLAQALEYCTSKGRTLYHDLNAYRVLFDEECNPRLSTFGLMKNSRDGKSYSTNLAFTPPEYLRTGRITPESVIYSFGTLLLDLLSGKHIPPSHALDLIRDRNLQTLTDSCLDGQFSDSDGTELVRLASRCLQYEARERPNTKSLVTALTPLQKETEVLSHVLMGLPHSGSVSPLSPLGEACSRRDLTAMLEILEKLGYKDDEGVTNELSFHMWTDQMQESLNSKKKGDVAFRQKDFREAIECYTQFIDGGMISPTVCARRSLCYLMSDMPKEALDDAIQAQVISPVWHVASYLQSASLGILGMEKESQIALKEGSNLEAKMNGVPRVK

binding result (GST-BSK3 WT [1])	binding result (GST-BSK6)	binding result (GST-BSK3 WT [2])	Binder
binds	binds	–	Sumo-His-RTFL18 (peptide, UniProt Q6X5V0 1-51, looked up, RTFL18 (DVL1), Arabidopsis; full-length coding region cloned into a pET-SUMO vector; source: E. coli BL21 (DB3); not shown: SUMO, N-terminal, kept; His, N-terminal, kept) MEMKRVMMSSAERSKEKKRSISRRLGKYMKEQKGRIYIIRRCMVMLLCSHD
–	–	binds	His-RTFL18 WT (peptide, UniProt Q6X5V0 1-51, looked up, RTFL18 (DVL1), Arabidopsis; full-length coding region cloned into a pET-SUMO vector; also called 6His-RTFL18 WT (wild type); source: E. coli BL21 (DB3), purified; not shown: His6, N-terminal, kept) MEMKRVMMSSAERSKEKKRSISRRLGKYMKEQKGRIYIIRRCMVMLLCSHD
